Test results from patent publication US20110020786A1 (BAYLOR COLLEGE OF MEDICINE, published 2011).
Ends that are not written are not given here.

What was measured:
[1] = biological target: T1, Norwalk virus-like particles (genogroup I) (Norwalk virus (genogroup I Norovirus), UniProt Q83884 1-530); experiment: ELISA: dendrimer coated, VLPs added, detection with MAb3912 and goat anti-mouse-HRP, ABTS at 405 nm
T1 construct: also called NV; NVLPs
T1 sequence: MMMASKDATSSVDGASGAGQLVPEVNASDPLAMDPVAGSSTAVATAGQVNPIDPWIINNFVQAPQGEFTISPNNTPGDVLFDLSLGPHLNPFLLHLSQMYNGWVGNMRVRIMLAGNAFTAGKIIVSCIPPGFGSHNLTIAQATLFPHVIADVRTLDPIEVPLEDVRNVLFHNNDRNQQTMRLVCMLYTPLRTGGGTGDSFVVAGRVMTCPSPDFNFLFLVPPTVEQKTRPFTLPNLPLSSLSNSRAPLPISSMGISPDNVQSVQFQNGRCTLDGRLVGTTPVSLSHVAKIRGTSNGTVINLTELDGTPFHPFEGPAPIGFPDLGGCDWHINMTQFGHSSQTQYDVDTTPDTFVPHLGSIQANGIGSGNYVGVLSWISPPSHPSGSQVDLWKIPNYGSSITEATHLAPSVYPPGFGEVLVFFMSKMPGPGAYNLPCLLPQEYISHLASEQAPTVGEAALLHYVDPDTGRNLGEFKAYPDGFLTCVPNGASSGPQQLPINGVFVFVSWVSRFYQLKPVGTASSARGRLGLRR

[2] = biological target: T2, Houston virus-like particles (genogroup II) (Norovirus genogroup II, Houston strain); experiment: SPR (BIAcore), VLPs immobilized, dendrimer injected
T2 construct: Recombinant VLP; also called HOV

[3] = biological target: T3, Snow Mountain virus-like particles (genogroup II) (Norovirus genogroup II, Snow Mountain …); experiment: as above
T3 construct: Recombinant VLP; also called SMV

[4] = biological target: T4, Grimsby virus-like particles (genogroup II) (Norovirus genogroup II, Grimsby strain); experiment: as above
T4 construct: Recombinant VLP; also called GRV

[5] = biological target: T1, Norwalk virus-like particles (genogroup …); experiment: as above
[6] = biological target: T1, Norwalk virus-like particles (genogroup …); experiment: ELISA: dendrimer coated at 0.4 mg/mL (32 µM), VLPs added at 2 µg/mL, detection with MAb3912 and goat anti-mouse-HRP, ABTS at 405 nm

B1: SREPQYGGPAAD8 (the octovalent dendrimer of SEQ ID NO: 5) (peptide)
peptide branch of the dendrimer: SREPQYGGPAAD
notes: also called nonspecific octovalent dendrimer
binding result [1]: no binding

AHFQTHTVPLSL (also: octovalent MAP dendrimer, eight copies on branching lysine core, Octovalent peptide dendrimer (MAP)) [AHFQTHTVPLSL8 (the octovalent dendrimer of SEQ ID NO: 2)]
equilibrium average response [2]: 6710 RU
equilibrium average response [3]: 6430 RU
equilibrium average response [4]: 6380 RU
equilibrium average response [5]: 6750 RU

RHFQTHTVPLSL (also: octovalent MAP dendrimer, eight copies on branching lysine core, Octovalent peptide dendrimer (MAP)) [RHFQTHTVPLSL8 (the octovalent dendrimer of SEQ ID NO: 1)]
binding result [6]: binds
